Here are results for eight substances from patent US5795865A, “Kallikrein-inhibiting "kunitz domain" proteins and analogues thereof” (Dyax Corp., priority 1996, dated 1998).

In one experiment the target is plasma kallikrein (pKA) (Homo sapiens, UniProt P03952). Put plainly: Inhibition of human plasma kallikrein (measured Ki taken as KD), yeast-expressed purified proteins. The format is biochemical. On the set-up: Hydrolysis of the Arg371 -Ile372 peptide bond yields a two-chain proteinase joined by a disulfide bond. Particulars: for Ki: preliminary measurements. As for the experimental part:
(§1) A second appropriate method of measuring KD is to measure the inhibitor activity against the enzyme. […] For the proteins of this invention, having KD in the range 5 nM to 50 pM, nanograms to micrograms of inhibitor suffice. When using this method, the competition between the inhibitor and the enzyme substrate can give a measured Ki that is higher than the true Ki. Measurement reported here are not so corrected because the correction would be very small and the any correction would reduce the Ki. Here, we use the measured Ki as a direct measure of KD.
The three isolates KKII/3#6, KK2/#11, and KK2/#13 were recloned into a yeast expression vector. The yeast expression vector is derived from pMFalpha8 (KURJ82 and MIYA85). The LACI variant genes were fused to part of the matα 1 gene, generating a hybrid gene consisting of the matα 1 promoter-signal peptide and leader sequence-fused to the LACI variant. Note that the correctly processed LACI-K1 variant protein should be as detailed in Table 2 with the addition of residues glu-ala-ala-glu (SEQ ID NO: 70) to the N-terminal met (residue 1 in Table 2). Expression in S. cerevisiae gave acceptable yield typical of this system.

The next experiment addresses T1, human plasma Kallikrein (Homo sapiens, UniProt P03952).
T1 construct: Hydrolysis of the Arg371 -Ile372 peptide bond yields a two-chain proteinase joined by a disulfide bond; purchased Calbiochem 420302
Briefly: Binding of display-phage to kallikrein-agarose beads (Table 8). Particulars: for Relative Binding: fraction bound relative to the parental display-phage, LACI-K1; for Fraction Bound: pfu's eluted as a fraction of the input number (10^10 pfu's). As for the experimental part:
This method is highly sensitive because the genetic packages can be amplified. We obtain at least semiquantitative values for the binding constants by use of a pH step gradient. […] Any other suitable method of measuring protein binding may be used.
The overall scheme for selecting a LACI-K1 variant to bind to a given protease involves incubation of the phage-display library with the kallikrein-beads of interest in a buffered solution (PBS containing 1 mg/ml BSA) followed by washing away the unbound and poorly retained display-phage variant with PBS containing 0.1% Tween 20. Kallikrein beads were made by coupling human plasma Kallikrein (Calbiochem, San Diego, Calif., # 420302) to agarose beads using Reactigel (6x) (Pierce, Rockford, II, #202606). The more strongly bound display-phage are eluted with a low pH elution buffer, typically citrate buffer (pH 2.0) containing 1 mg/ml BSA, which is immediately neutralized with Tris buffer to pH 7.5. This process constitutes a single round of selection.

Another experiment concerns the target plasmin (Homo sapiens, UniProt P00747). Put plainly: Inhibition of plasmin (Ki). The format is biochemical. As for the experimental part:
as §1

The conditions of experiment [1]: about 840 mg, 80 open-heart surgery patients, FRAE89; cited from earlier work.
Where [2] appears, read: not corrected for substrate competition, read-out: Ki for plasma kallikrein (pKA).
[3] abbreviates: stated as 'probably less than', read-out: Ki for plasma kallikrein (pKA), probable bound.

Like-named read-outs stand apart in the source and are kept apart here.

plasma kallikrein (pKA), sequence (P03952 391-638 limits assumed): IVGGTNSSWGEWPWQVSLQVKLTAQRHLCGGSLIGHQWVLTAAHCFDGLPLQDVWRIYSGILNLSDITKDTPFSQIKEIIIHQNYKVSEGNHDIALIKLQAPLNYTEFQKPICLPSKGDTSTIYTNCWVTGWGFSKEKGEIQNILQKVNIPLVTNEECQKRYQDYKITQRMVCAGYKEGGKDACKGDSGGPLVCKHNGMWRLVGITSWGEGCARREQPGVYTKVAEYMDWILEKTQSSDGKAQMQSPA
plasma kallikrein (pKA), sequence (P03952 20-390 partner limits assumed): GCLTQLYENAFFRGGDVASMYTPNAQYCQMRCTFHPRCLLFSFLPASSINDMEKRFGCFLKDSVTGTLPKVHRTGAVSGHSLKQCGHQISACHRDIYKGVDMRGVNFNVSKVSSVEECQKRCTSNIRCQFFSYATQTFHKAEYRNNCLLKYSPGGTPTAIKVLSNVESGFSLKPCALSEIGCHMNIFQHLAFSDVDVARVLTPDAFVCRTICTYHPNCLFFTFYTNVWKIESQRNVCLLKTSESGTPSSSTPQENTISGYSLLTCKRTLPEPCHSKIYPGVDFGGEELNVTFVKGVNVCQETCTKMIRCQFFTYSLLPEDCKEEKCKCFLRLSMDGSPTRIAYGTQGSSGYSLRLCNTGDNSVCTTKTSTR
T1 sequence (P03952 391-638 limits assumed): as the sequence (P03952 391-638 limits assumed) above
T1 sequence (P03952 20-390 partner limits assumed): as the sequence (P03952 20-390 partner limits assumed) above
plasmin, sequence (P00747 581-810 limits assumed): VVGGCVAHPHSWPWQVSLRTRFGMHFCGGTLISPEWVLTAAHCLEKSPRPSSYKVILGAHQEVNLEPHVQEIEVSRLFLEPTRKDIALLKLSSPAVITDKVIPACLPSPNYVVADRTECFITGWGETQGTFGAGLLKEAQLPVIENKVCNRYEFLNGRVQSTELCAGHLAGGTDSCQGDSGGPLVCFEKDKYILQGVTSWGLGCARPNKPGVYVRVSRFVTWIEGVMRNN
plasmin, sequence (P00747 97-580 partner limits assumed): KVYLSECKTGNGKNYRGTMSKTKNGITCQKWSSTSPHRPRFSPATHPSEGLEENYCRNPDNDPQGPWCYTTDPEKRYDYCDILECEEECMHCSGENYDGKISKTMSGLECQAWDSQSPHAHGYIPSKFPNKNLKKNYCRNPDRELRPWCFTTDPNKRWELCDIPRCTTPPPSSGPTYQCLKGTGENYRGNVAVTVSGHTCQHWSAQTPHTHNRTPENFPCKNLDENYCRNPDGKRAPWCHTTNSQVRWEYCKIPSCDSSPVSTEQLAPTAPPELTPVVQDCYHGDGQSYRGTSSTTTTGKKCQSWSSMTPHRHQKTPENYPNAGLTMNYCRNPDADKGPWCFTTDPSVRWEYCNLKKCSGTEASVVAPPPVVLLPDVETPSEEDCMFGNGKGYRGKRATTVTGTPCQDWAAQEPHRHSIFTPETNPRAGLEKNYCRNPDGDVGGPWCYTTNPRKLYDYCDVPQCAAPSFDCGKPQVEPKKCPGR

“KK2/#11: second-library LACI-K1 variant Kunitz domain, SEQ ID NO. 22 (MHSFCAFKADDGPCRAAHPRWFFNIFTRQCEEFSYGGCGGNQNRFESLEECKKMCTRD)”: the Ki (in general, the equilibrium dissociation constant of an inhibitor or competing ligand from its target) was below 0.3 nM with plasma kallikrein (pKA) (setting [2]) and below 0.1 nM with plasma kallikrein (pKA) (setting [3]).

For “KK2/#13: second-library LACI-K1 variant Kunitz domain, SEQ ID NO. 19 (MHSFCAFKADGGRCRGAHPRWFFNIFTRQCEEFSYGGCGGNQNRFESLEECKKMCTRD)”, the inhibitory constant (Ki) is below 0.3 nM with plasma kallikrein (pKA) (setting [2]) and below 0.1 nM in the experiment with plasma kallikrein (pKA) (setting [3]).

Turning to “KKI/3(a): LACI-K1 variant Kunitz domain, phase I selectant, SEQ ID NO. 15 (MHSFCAFKADDGRCKGAHLRFFFNIFTRQCEEFIYGGCEGNQNRFESLEECKKMCTRD)”, in the experiment with human plasma Kallikrein, the “Relative Binding” value was 761 and the “Fraction Bound” value is reported as 3.2 × 10^-3.

As for “KKI/3(b): LACI-K1 variant Kunitz domain, phase I selectant, SEQ ID NO. 16 (MHSFCAFKADDGPCKAIHLRFFFNIFTRQCEEFIYGGCEGNQNRFESLEECKKMCTRD)”, in the experiment with human plasma Kallikrein, the “Relative Binding” value is listed as 524 and the “Fraction Bound” value is on record as 2.2 × 10^-3.

In the case of “KKII/3#5: LACI-K1 variant Kunitz domain, SEQ ID NO. 9 (MHSFCAFKADDGHCKASLPRFFFNIFTRQCEEFIYGGCGGNQNRFESLEECKKMCTRD)”, in the experiment with human plasma Kallikrein, the “Relative Binding” value is recorded as 928 and the “Fraction Bound” value is listed as 3.9 × 10^-3.

“KKII/3#6: lead pKA inhibitor, LACI-K1 variant Kunitz domain, SEQ ID NO. 10 (MHSFCAFKADDGHCKANHQRFFFNIFTRQCEEFSYGGCGGNQNRFESLEECKKMCTRD)”: the inhibition constant Ki was 10000 nM with plasmin, around 0.3 nM with plasma kallikrein (pKA) (setting [2]) and below 0.5 nM in the experiment with plasma kallikrein (pKA) (setting [3]). Besides, the “Relative Binding” value with human plasma Kallikrein is 2071. The “Fraction Bound” value with human plasma Kallikrein is 8.7 × 10^-3. Moreover, in the experiment with plasma kallikrein (pKA) (versus both wild-type LACI and BPTI), the “Ki for kallikrein relative to wild-type LACI and BPTI (times)” value is listed as “over 100 times”.

For the substance “LACI-K1: first Kunitz domain of human LACI (residues 50 to 107), parental molecule, SEQ ID NO. 3 (MHSFCAFKADDGPCKAIMKRFFFNIFTRQCEEFIYGGCEGNQNRFESLEECKKMCTRD) [reference compound]”, in the experiment with human plasma Kallikrein, the “Fraction Bound” value is reported as 4.2 × 10^-6.

For the substance “bovine pancreatic trypsin inhibitor [BPTI]”, the “Fraction Bound” value at human plasma Kallikrein is recorded as 2.5 × 10^-5. Moreover, the “decrease of mean amount transfused” value in experiment [1] is given as 74%.
